The values that follow come from patent US20120321554A1 (MODIQUEST B V, published 2012).

Where no end group is shown, it is not given here.

Test [1] addresses T1, Bovine serum albumin (bovine, UniProt P02769 25-607).
T1 construct: Control coat in ELISA; also called BSA
The test can be described thus: ELISA with soluble sdab, detection via VSV-G-tag. For orientation: In an ELISA, binding on a coated surface is turned into a signal by an enzyme label.

In test [2] the target is T2, human plexin D1 (in sections of human tumors) (human, UniProt Q9Y4D7 47-1925).
T2 construct: whole, on cells; Endogenous protein on tumor cells and vessels in tissue sections (immunohistochemistry); also called PLXND1
T2 sequence (Q9Y4D7 47-1925): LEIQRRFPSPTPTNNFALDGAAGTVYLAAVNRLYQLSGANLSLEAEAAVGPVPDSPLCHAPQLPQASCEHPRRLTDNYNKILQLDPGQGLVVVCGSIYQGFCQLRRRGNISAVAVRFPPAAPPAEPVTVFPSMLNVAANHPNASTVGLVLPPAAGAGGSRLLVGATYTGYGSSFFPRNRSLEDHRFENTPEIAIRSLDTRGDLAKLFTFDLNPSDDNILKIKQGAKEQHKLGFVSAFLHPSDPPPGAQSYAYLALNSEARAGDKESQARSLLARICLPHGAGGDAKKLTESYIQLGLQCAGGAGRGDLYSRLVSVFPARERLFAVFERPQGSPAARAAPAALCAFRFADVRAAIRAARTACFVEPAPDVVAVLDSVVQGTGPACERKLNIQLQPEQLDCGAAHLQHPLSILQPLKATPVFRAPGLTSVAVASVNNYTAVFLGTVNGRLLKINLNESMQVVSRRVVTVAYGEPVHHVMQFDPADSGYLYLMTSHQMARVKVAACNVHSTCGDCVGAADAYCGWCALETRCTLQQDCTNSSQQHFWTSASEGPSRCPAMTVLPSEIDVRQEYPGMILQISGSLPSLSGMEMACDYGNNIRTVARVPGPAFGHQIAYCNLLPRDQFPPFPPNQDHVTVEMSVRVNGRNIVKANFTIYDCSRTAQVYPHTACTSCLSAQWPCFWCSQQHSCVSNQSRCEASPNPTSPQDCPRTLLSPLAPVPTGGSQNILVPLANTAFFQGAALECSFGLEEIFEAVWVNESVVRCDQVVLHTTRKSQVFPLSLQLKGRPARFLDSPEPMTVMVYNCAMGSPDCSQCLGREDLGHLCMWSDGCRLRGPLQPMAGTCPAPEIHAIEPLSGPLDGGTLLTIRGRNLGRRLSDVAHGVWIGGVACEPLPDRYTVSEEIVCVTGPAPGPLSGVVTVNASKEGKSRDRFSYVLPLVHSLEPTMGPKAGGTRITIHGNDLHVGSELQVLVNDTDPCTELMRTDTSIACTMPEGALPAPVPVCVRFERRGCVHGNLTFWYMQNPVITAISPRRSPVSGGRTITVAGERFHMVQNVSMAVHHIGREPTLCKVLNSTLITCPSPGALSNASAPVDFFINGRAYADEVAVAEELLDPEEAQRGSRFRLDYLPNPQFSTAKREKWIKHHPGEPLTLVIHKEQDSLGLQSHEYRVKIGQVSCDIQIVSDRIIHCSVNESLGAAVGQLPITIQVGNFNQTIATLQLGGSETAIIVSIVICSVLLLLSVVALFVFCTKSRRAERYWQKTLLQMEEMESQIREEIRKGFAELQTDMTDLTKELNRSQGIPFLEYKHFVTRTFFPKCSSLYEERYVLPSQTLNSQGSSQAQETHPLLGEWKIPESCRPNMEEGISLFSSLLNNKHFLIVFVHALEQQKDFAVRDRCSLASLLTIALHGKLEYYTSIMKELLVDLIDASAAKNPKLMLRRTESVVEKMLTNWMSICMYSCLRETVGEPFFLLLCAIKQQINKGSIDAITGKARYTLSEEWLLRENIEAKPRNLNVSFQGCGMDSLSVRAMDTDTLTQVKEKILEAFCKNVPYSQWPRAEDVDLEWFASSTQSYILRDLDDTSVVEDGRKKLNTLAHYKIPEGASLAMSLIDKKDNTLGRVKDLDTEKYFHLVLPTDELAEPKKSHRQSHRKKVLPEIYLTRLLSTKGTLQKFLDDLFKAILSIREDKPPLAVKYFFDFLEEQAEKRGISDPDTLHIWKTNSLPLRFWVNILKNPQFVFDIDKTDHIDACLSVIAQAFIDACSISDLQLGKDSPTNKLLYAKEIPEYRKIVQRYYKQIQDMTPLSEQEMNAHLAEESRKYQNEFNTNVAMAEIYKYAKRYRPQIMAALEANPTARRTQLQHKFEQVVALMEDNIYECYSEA
Kind of test: immunohistochemistry on human tumor tissue.

The target in test [3] is T3, PLXND1-peptide-KLH conjugate (human, also: conjugated to KLH, attachment site not given here).
T3 construct: Coupled to a CM5 chip (27 ug/ml in Na-Acetate pH 4.0) for the Biacore measurements; also called KLH-conjugated peptide
T3 peptide: ALEIQRRFPSPTPTNC-NH2
The test can be described thus: SPR, Biacore 2000; peptide-KLH conjugate on CM5 chip, sdab in solution, BSA surface subtracted, 1:1 Langmuir model. For orientation: SPR reads the build-up and loss of mass on a sensor chip optically.

Test [4] deals with T1, Bovine serum albumin. The test can be described thus: phage ELISA, anti-M13 detection.
Test [5] addresses mouse plexin D1 (on vessels in mouse tissue) (mouse) (UniProt Q3UH93). Kind of test: cell-based or functional assay.

T1 sequence (P02769 25-607 limits assumed): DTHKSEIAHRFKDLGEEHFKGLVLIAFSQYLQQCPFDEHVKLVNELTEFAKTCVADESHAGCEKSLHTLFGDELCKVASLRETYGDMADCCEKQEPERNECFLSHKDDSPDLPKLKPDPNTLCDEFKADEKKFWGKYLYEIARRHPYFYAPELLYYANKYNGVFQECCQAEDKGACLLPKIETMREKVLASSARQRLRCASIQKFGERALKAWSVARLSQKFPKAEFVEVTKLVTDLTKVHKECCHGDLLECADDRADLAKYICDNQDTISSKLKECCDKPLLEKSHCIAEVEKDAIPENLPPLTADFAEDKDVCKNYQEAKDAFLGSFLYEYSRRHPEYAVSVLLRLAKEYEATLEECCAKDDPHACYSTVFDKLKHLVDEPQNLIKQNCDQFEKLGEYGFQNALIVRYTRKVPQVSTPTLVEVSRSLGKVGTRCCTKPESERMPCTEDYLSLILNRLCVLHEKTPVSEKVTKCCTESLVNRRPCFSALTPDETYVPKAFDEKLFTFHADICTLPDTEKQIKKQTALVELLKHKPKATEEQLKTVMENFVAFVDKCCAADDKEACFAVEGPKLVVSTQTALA
Chain of mouse plexin D1 (on vessels in mouse tissue) (mouse) (Q3UH93 49-1925): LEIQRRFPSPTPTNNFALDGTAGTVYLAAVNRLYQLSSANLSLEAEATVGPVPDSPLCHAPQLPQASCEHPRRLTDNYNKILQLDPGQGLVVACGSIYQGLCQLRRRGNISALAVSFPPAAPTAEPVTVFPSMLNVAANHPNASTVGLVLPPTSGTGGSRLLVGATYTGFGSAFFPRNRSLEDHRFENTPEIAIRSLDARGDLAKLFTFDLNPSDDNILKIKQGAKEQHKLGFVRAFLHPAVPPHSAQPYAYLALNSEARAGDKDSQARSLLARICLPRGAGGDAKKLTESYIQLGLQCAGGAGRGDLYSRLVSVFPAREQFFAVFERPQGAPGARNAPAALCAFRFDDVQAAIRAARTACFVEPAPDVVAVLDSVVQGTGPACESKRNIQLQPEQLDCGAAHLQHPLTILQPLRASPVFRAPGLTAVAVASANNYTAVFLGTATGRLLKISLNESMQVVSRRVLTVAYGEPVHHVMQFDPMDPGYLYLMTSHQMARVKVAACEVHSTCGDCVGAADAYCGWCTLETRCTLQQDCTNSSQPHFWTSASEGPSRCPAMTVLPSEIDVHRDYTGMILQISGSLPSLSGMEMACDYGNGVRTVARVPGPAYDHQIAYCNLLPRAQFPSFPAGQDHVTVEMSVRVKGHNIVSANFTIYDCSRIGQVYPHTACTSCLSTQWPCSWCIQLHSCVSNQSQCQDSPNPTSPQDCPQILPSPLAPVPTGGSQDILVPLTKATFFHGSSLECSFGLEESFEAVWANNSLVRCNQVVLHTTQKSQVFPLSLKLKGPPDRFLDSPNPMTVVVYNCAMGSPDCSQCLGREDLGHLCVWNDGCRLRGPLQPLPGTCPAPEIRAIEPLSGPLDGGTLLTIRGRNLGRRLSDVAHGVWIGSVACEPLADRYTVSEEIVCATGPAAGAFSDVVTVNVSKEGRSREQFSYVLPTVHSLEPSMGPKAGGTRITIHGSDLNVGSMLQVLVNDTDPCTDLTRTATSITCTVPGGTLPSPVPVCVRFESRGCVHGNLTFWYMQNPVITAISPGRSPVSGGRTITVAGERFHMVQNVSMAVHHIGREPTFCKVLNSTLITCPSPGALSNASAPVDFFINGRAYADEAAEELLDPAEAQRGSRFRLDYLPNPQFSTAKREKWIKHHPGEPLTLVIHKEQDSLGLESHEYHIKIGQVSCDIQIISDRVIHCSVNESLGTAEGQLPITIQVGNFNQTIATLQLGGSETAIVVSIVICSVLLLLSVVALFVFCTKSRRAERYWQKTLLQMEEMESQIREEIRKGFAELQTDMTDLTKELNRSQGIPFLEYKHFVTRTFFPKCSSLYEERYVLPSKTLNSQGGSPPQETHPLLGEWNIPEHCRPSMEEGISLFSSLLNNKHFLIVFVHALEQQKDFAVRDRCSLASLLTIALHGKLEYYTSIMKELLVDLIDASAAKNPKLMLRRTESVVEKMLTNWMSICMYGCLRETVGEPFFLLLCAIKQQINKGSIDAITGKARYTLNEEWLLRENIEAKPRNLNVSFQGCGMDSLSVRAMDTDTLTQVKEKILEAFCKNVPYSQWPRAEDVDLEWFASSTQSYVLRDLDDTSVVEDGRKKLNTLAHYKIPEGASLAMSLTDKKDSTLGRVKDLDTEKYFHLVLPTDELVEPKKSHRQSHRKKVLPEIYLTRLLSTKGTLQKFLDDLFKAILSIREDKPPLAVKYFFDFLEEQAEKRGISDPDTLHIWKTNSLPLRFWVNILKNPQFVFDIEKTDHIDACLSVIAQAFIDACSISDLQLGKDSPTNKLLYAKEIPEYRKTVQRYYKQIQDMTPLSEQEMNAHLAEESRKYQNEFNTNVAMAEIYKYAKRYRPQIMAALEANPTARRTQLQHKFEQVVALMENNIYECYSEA

B1: Llama single domain antibody A12 (soluble sdab, C-terminal 8*His-tag and VSV-G-tag) (VHH)
VHH: QVQLQESGGGLVQPGGSLRLSCAASGSSISINNWGWYRQAPGKQRERVAAISGGGKTVYADSVKGRFTISRDNAKNTVYLQMNSLKPEDTAVYYCRAVRKSTGWLRGLDVWGQGTQVTVSA
notes: also called sdab A12; V-H single domain antibody A12
Consider B1, for which the binding result in test [1] is “no binding”; in test [2], “binds”. Moreover, binding in test [3] was put at a Kd of 21 nM.

B2: M13 phage displaying single domain antibody A12 (VHH)
VHH: QVQLQESGGGLVQPGGSLRLSCAASGSSISINNWGWYRQAPGKQRERVAAISGGGKTVYADSVKGRFTISRDNAKNTVYLQMNSLKPEDTAVYYCRAVRKSTGWLRGLDVWGQGTQVTVSA
notes: Whole M13 phage particle carrying A12; detected with anti-M13 antibody; also called phage A12; M13 phage associated antibody A12; not shown: M13 phage coat protein to which the sdab is fused (phagemid pHENIXHis8VSV); not described
In the case of B2, the binding result in test [4] is recorded as “no binding (tested: 10^10 phages)”.

B3: M13 phage displaying single domain antibody F8 (VHH)
VHH: QVQLQESGGGLVQAGDSLRLSCAASGRTFSTLIMAWFRQAPGKEREFVAAISRGGGSTSYADSVKGRFTISRDNSKNAVYLQMNSLKPDDTAVYYCNARYGSRIYWGQGTQVTVSS
notes: Whole M13 phage particle carrying F8; detected with anti-M13 antibody; also called phage F8; M13 phage associated antibody F8; not shown: M13 phage coat protein to which the sdab is fused (phagemid pHENIXHis8VSV); not described
Regarding B3, the binding result in test [4] is recorded as “no binding (tested: 10^10 phages)”. Besides, in test [5], the quantification of phage homing: colony-forming phages eluted from laser-dissected tumor tissue against unaffected brain was determined as 20 fold.

B4: Llama single domain antibody F8 (soluble sdab, C-terminal 8*His-tag and VSV-G-tag) (VHH)
VHH: QVQLQESGGGLVQAGDSLRLSCAASGRTFSTLIMAWFRQAPGKEREFVAAISRGGGSTSYADSVKGRFTISRDNSKNAVYLQMNSLKPDDTAVYYCNARYGSRIYWGQGTQVTVSS
notes: also called sdab F8; V-H single domain antibody F8
Regarding B4, in test [1], the binding result is given as “no binding”. The same molecule yielded a Kd in test [3] of 35 nM.

Broadly, the Kd is the constant that tells how readily two partners part at equilibrium. The low end stands for higher affinity, the high end for lower affinity.
